Test results reported in the DeepSol protein solubility set.

Experiment: soluble on expression in E. coli; label from the status in PepcDB or PDB records

**Q.** Which “soluble on expression in E. coli” value does the source give for “MAHHHHHHASVGRFVQTADPAVTALESPPLPTETRLWRQSPDCQSESDSNRVSGSVLDSVKSNGGPKHASTARLHASQDLPTSVTRFLCLSSSSNSAAAKDLRRQLLVVRDCCVALGNKVKGSELLLLGGSQLSRKVEAMADFNSCLGVIFAASLTFTGETEGVAKDTLCSVVEMLKSAQESGDEKVFRAAVVKIVNRILLCTPLRPPARNAAKETARKSAGKQEQHAEQEPKLEDECLDFLTVEDGVPVLLECVWKRWLRYFEDGYVRYVKKLMAEERQALEAAAAAAAADDYNGEEAQYVDGVSATTTQTISTVPLFTTCQDYWKSPASAYAQFCYILLAIFFVRTKDFSLNYLARVTKLVQYFTYQLEFEDGEPIAVRTDTDAEEDSAQSEDEDDDRTPPQQEGPRKEKQVHSLPMPEYDKAVTQRRFRMSRRSSSQGLVPTVVSFKKAEKPRRHCHKCFFTDALPGDLRPSVEAVRQEEAEAAARDSEEHSHLPVVRRSANLDLSEHSISPQREREQLDACDASMESVQGV” here?
**A.** The value was “soluble”.

**Q.** For “MAHHHHHHGMTRTRSGSLAAGGLNWASLPLKLFAGGNAKFWHPADIDFTRDRADWEKLSDDERDYATRLCTQFIAGEEAVTEDIQPFMSAMRAEGRLADEMYLTQFAFEEAKHTQVFRMWLDAVGISEDLHRYLDDLPAYRQIFYAELPECLNALSADPSPAAQVRASVTYNHIVEGMLALTGYYAWHKICVERAILPGMQELVRRIGDDERRHMAWGTFTCRRHVAADDANWTVFETRMNELIPLALRLIEEGFALYGDQPPFDLSKDDFLQYSTDKGMRRFGTISNARGRPVAEIDVDYSPAQLEDTFADEDRRTLAAASA”, which “soluble on expression in E. coli” value is on record?
**A.** Its value is “soluble”.

**Q.** Which “soluble on expression in E. coli” value does the source give for “MAHHHHHHMAAAPSATAPKHNYTLGTNASQLELYKYLKTVPPIPELRQAVTIKKYEEASVDDTLYPLIDEHQIIMVVGAFFGDEGKGKTVDAVARHPACTCVARVNSGENAGHTVFDDIGRKYVFNLAPSSLLTPNTRNYVSSECVMDPISFMEREIGQFIKSNMPYKDKLFVGNVFVVTPYHKLLDLLGSAPNSSTLKGMSPIHASKVTKRGIRLDHIFNDEGVLRARLAKDMDTYYGLLKVKGLTDKDVVRRCQEENADGVERVPGYVVDFARAENKIDYLVKLYTERVKNNKDFPRRCDVTHELRAALARGEKLLLEGPQSYWLSNAREKFWESTTSADTTAGGLLASAQFNFQRYKVLVINVHKAPGSSRVGIGANPSSFVPQDYYSAQDIKTLEALPKGGCVDFDKIQNFFYTKAFNTESKTFNGIYEPLEYEDATGKYNIGVAMSIASARHHGECGAVTKKPRVCGFFDCVLHFEVNAVQGPYLSISAVDRGDDYDRIGITIAYVYYDVGNKMVDANGRVYKNGDIIKAGDPVPCEMALYHCYPIVKVINGWKGAPIAASKRRPNEPLPKGVCEFIANVEFFTGAKVISIGNGPRGSDIIYLKQ” here?
**A.** Its value is “soluble”.

**Q.** For “MAHHHHHHMADDEPEYREAANPIEAFIDCARYDEPGDAEALRTLLSNSPSFLNSQDEQGRTALHVAAANGRLKVLETLLGYNPTPDVPNNEGNTALHFAALNNQTAAARLLLRHGWRASARNAFNKTPIQLIYGKQFEDMELLLLGHDDELEQFSGQASQAARGPAVVNEATVQQQPAVEAERATNAEQPRVNPVQKEQESDPTTLLGSVGVDEIE”, which “soluble on expression in E. coli” value is on record?
**A.** Its value is “soluble”.

**Q.** Which “soluble on expression in E. coli” value does the source give for “MAHHHHHHMADGKAENELMEIEEIAVSDGGAARFAPVEVKSGEEKYNIVWEETGKLLRFDEGENAWKERGQGMAKILQKKEDSGVYMFVFRREGVGKLAAQHYLLRGMTIKVHPQSEKALLWTAFKDYSDDEEGFPERFVLRFASKELADSGLKAFNDALSKTTT” here?
**A.** The value was “soluble”.

**Q.** For “MAHHHHHHMAFTGPNPSIWVGGLDPDLQEQKLYDYFVRIGPVTSVRVCVDSATQKSLGYGYVNFQDPADAEKALDQAGSKLGSRYLRIAKIQRDPSKRRSGVNNILVKKLPKSVDTYALKEMFSKFGRLTAIGLACDEKGESRGYARISFEREESAVDAVREMDGMEMDGQAIVVERYQAQHRDELLKQFTNLYVKNLDPAVTDEKLRAFFAKYGEVSSAKVRDLGAAQSEAGLGYVAFQKHENAARAVEELNGKECEIAKAGSPLDVSRFRSREERQRDRERQRRERAQQHSKYPNLYVKGFDDTVTSERLEELFQRYGETVSVTVMMDKETGVSRCFGFVSMKDQNAASQAIQELNGSTFLSPRPLFVTYALRKDARRQNLEERSKQFRVRQNPMGGPGMGAMPPIGFMGPQMFNNVNMPFMNPRVPIMPMNGMNGIGGMNGMGGMNGVGGVGGMGGMGGMGGMGGMGGMGGMGGMGSMGGMGGMARPMAPNAMSQMRSRPMPQKPPMQSLMPQQHQQAPPQGQNLAAVLANLNPEQQKNVLGERLYSYIVRSHPSVAAKITGMLLEMDNAEILNMLDSPTMLDSKIAEAQDVLNRHMSV”, which “soluble on expression in E. coli” value is on record?
**A.** Its value is “soluble”.

**Q.** Which “soluble on expression in E. coli” value does the source give for “MAHHHHHHMAKKHLKRLYAPKDWMLSKLTGVFAPRPRAGPHKLRECLSLLIIIRNRLKYALNALEAQMILRQGLVCVDGKPRKDGKYPAGFMDVVEIPKTGDRFRILYDVKGRFALVRVSEAESSIKMMKVVNVYTGTGRIPVAVTHDGHRIRYPDPRTSRGDTLVYDVKEKKVLDLIKIGNGKVVMVTGGANRGRIGEIVSIERHPGAFDIARLKDASGHEFATRATNIFVIGKDMSSVPVTLPKQQGLRINVIQEREEKLIAAETRRTTQAHSKRKTKV” here?
**A.** Its value is “not soluble”.

**Q.** With “MAHHHHHHMANAELVDAGCFITQMNELLLIDPLYINCTMTNYCNSYISGKEKLLPRERLNGIYFKNAKPGLWSSFAIRENNQACLKKTSNQETETDAENRNNNNSYNNVRNEMVLSFICFNNTEYMHEYLTVEKVDKLKWEKVKPNESHLRVGQADQYNSTVNIEYKNEKTGIFHHNKNELLPLENYFTNVLTIESGQVGLFCMESIKHSADLLFQKHEMNNISNKEELDNLFNQNMNDLYPWFEKICNLTLSSSVAVVDFIDMPIGCVCLSSSDCVVNYLCEVVRDEVTDEVWAIRVNFLSPLK” as the sequence, how does the “soluble on expression in E. coli” value read?
**A.** The value was “soluble”.

**Q.** With “MAHHHHHHMANSRASTLAAAAAAASTAAVKPLSYVSLRSHDGKHVILPVAAAAGSRVLHGIFQGLYVMRLHQCNSPADQPPHAQHEQYPMVEEDAQQGELHIPRSGSSSSSGSDVANKAHGSAEVKVDDPIPIIEDEDDIEEDEARHQVNGAAYRSYAAVFPSNVACVPPPPSPLLSTSPPAAPSPCVPPLLEVPICSLEFSTLMRVAEFLVVKITLASHPHYLHEANVFGDLDRTSERDQLVAMQVLLGADFLNC” as the sequence, how does the “soluble on expression in E. coli” value read?
**A.** The value was “not soluble”.

**Q.** Which “soluble on expression in E. coli” value does the source give for “MAHHHHHHMAPPNGTVCCPEDLKMYSTIQLNQEIEISKNPFPLHEINKKNDIPLCAQEFSDLTDPLYIKKICLEKVPEWNHFTEDNLRVKQILSGLTNQLFEVGLKEETANNYNSIRTRVLFRIYGKHVDELYNTISEFEVYKTMSKYKIAPQLLNTFNGGRIEEWLYGDPLRIDDLKNPTILIGIANVLGKFHTLSRKRHLPEHWDRTPCIFKMMEKWKNQLFKYKNIEKYNCDIHKYIKESDKFIKFMKVYSKSDNLANTIVFCHNDLQENNIINTNKCLRLIDFEYSGFNFLATDIANFFIETSIDYSVSSYPFFEIDKKKYISYENRKLFITAYLSNYLDKSLVVPTPKLIDEILEAVEVQALGAHLLWGFWSIIRGYQTKSYNEFDFFLYAEQRLKMYDDQKEYLISNNI” here?
**A.** The value was “not soluble”.

**Q.** Which “soluble on expression in E. coli” value does the source give for “MAHHHHHHMATNPDIETDIPRDVYQFFRGLNRAVERRDAAAMHDLYESQFDALTKNYYMAGHGQFRSWPALRLEQVSSCFRGNHMAELVYSFLFYKHLFMDNRSVRAPDAEGAWKTYSELLPMLKSYELPNWMLWDIFDEFLYQMTVVYQKVFVTEGIWAVPEVSRLLNEVIDNSRLLELVKQPDFLEDIHRGPNTGALSGFYAIVTKSKLNVLLGDYYSALTDLEPLDVYNKGRAVLTRVSPCAVSVFYHIGFSYLMIHRFEDASNAFRRCVTVKLNGRRFSERVQQDAAYMYVCARVLGGMPINNLTSYLDSRKVAAFEDDRESLRTGDEERFRDVFDRCSPKFLTVPPSDGSPVKGSEGRELQARMFRRAVQQQQDIIKLRGYFKVYQNTKMNLLETLLEVDDGYAPLFALKMRSRQLVHDGVTADLLQGVFTSSSEFDCIVQDDNVEVVPSMTFGGIEQKLLNKIKNTQRDIEVAKRKFNQTRNRDEGGNKRKDQRDQKRRPNQQQLHGGVGNNAGSANRSSNNVNRHPRQKMAAQPMTSNLFNRNDN” here?
**A.** The value was “soluble”.

**Q.** For “MAHHHHHHMATVGDPLFRIHEPTYAFLDCSACIAFAGHLGRRMNESIRYGGRGGATFLSSHRLGKDNKLKRRDYATSELRGAEVLEKICNDSLFDDYALHFRADMRIRVYDNGESEYPLAQHYSKEDSRILKAVKTKAVHVFCTRVMDEEEDAMTSLVREVELLSELEQRLCGGYLEMRNITAPPFPVEKAVTAVCVGVEPSIEAEVRRLEKYEKWQASISKGTSQDKMKGAEGAESVVVKGVQYSKDDPLSFTVLRKPNAKSNGDTTEGGSDAAEDVRKQPDKDSVFMNFDL”, which “soluble on expression in E. coli” value is on record?
**A.** The value was “not soluble”.
